According to patent US20160243251:

What was measured:
Assay in all cases: FP
[1] = test system: KRRRC(-TMR)-NH2 (LKLRLRLRLC(-TMR)-NH2) (synthetic); conditions: 2 mM NaCl, pH 7.4; p253 text gives 46 ± 9
[2] = test system: T1, TMR-(CH2)5-DKDRDRDR-NH2 (synthetic); conditions: 2 mM NaCl, pH 7.4
T1 sequence: KRRR

[3] = test system: T2, TMR-(CH2)5-KRRR-NH2 (L) (synthetic); conditions: 2 mM NaCl, pH 7.4
T2 sequence: KRRR

[4] = test system: T3, TMR-DKDRDRDR-NH2 (synthetic); conditions: 2 mM NaCl, pH 7.4
T3 sequence: KRRR

[5] = test system: TMR-DRDRDRDK-NH2 (synthetic); conditions: 2 mM NaCl, pH 7.4
[6] = test system: TMR-KKKK-NH2 (TMR-LKLKLKLK-NH2) (synthetic); conditions: 2 mM NaCl, pH 7.4
[7] = test system: T4, TMR-KRRR (TMR-LKLRLRLR, C-terminal carboxylate) (synthetic); conditions: CITED Xiong et al; pH 7.4; DNA assumed same 30-mer; cited from earlier work
T4 sequence: KRRR

[8] = test system: T5, TMR-KRRR-NH2 (TMR-LKLRLRLR-NH2) (synthetic); conditions: 2 mM NaCl, pH 7.4
T5 sequence: KRRR

[9] = test system: T6, TMR-LKDRLRDR-NH2 (synthetic); conditions: 2 mM NaCl, pH 7.4
T6 sequence: KRRR

[10] = test system: TMR-LRL-LRL-LRL-LRL-NH2 (tetra L-homo-arginine) (synthetic); conditions: 2 mM NaCl, pH 7.4
[11] = test system: TMR-LRS-LRS-LRS-LRS-NH2 (tetra L-2-amino-3-guanidinopropionic acid) (synthetic); conditions: 2 mM NaCl, pH 7.4
[12] = test system: TMR-RRRK-NH2 (TMR-LRLRLRLK-NH2) (synthetic); conditions: 2 mM NaCl, pH 7.4
[13] = test system: TMR-RRRR (TMR-LRLRLRLR, C-terminal carboxylate) (synthetic); conditions: CITED Xiong et al; pH 7.4; DNA assumed same 30-mer; cited from earlier work
[14] = test system: TMR-RRRR-NH2 (TMR-LRLRLRLR-NH2) (synthetic); conditions: 2 mM NaCl, pH 7.4
[15] = test system: TMR-β3Kβ3Rβ3Rβ3R-NH2 (synthetic); conditions: 2 mM NaCl, pH 7.4
[16] = test system: TMR-β3Rβ3Rβ3Rβ3K-NH2 (synthetic); conditions: 2 mM NaCl, pH 7.4

Question: With “GACGACTAGGACGACGACGAGGATGACGAC (double strand) [30-mer dsDNA]” as the sequence, how does the Kd [1] read?
Answer: 54 nM

Question: And the Kd [2]?
Answer: 47 nM

Question: And the Kd [3]?
Answer: 46 nM

Question: And the Kd [4]?
Answer: 44 nM

Question: And the Kd [5]?
Answer: 37 nM

Question: And the Kd [6]?
Answer: 53 nM

Question: What about the Kd [7] of the same sequence?
Answer: 197 nM

Question: And the Kd [8]?
Answer: 46 nM

Question: What about the Kd [9] of the same sequence?
Answer: 36 nM

Question: What about the Kd [10] of the same sequence?
Answer: 13 nM

Question: What about the Kd [11] of the same sequence?
Answer: 129 nM

Question: And the Kd [12]?
Answer: 28 nM

Question: What about the Kd [13] of the same sequence?
Answer: 236 nM

Question: What about the Kd [14] of the same sequence?
Answer: 31 nM

Question: And the Kd [15]?
Answer: 41 nM

Question: And the Kd [16]?
Answer: 49 nM
